Test results from publication PMC5482323.

How the values were obtained:
[1] = target: basigin (CD147), Ig domains 1 and 2 of the short isoform (aa 22-205) (UniProt P35613); experiment: SPR; BIAcore T200; basigin immobilised on a CM5 chip by amine coupling (950 RU); PfRH5 injected as a twofold dilution series from 2 uM, 120 s at 30 uL/min, 300 s dissociation; 20 C; 10 mM HEPES pH 7.4, 150 mM NaCl, 3 mM EDTA, 0.005% Tween-20, 2 mg/mL dextran, 1 mg/mL salmon sperm DNA; global 1:1 interaction model
[2] = target: basigin (Homo sapiens) (UniProt P35613); conditions: cited from earlier work

| Substance | Kd [1] | Kd [2] |
| --- | --- | --- |
| Plasmodium falciparum reticulocyte-binding protein homolog 5 with C-terminal hexa-histidine tag (from UniProt Q8IFM5 26-526) (domain or fragment) | 830 nM | – |
| Plasmodium falciparum reticulocyte-binding protein homolog 5 with C-terminal C-tag (EPEA) (from UniProt Q8IFM5 26-526) (domain or fragment) | 390 nM | – |
| PfRH5 (from UniProt Q8IFM5) | – | 1000 nM |
